Laboratory results taken from patent US20140087995A1 (published 2014).
Numbered stars: 1 amine (or outer) side, 2 acyl side, 3 side chain; on linkers, the order of the positions; unused ones are H or OH. Bridge positions count the residues as written; N and C are the ends. Square brackets hold non-standard residues; d marks the D form. Side chains are listed from the residue outwards. Ends that are not written are not given here. * marks the point of attachment. C20 diacid = O=C(O)CCCCCCCCCCCCCCCCCCC(=O)*; γGlu = O=C(O)[C@H](CCC(=O)[*:2])N[*:1]

Tests used:
[1] = biological target: T1, human amylin 3(a) receptor (human calcitonin receptor co-expressed with RAMP-3) (human, UniProt P30988 25-474; O60896 24-148, limits assumed); assay: cell-based or functional assay
T1 sequence (looked up) 1: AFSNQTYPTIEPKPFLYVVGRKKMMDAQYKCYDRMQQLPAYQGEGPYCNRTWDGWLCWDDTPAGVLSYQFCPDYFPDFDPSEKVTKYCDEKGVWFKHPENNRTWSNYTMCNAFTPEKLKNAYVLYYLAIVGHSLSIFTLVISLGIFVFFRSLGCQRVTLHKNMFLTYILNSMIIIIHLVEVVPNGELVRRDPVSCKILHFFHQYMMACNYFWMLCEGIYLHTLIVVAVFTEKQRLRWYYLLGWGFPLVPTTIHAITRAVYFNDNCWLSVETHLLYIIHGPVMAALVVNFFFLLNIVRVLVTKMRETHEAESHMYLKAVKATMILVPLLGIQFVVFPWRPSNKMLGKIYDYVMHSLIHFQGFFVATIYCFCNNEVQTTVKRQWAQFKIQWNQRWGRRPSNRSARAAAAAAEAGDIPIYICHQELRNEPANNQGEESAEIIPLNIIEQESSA
T1 sequence (looked up) 2: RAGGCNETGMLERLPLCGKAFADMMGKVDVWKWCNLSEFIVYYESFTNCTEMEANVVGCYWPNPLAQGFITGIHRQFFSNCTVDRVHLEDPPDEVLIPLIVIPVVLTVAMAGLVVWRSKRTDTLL

[2] = biological target: T2, human calcitonin receptor (human, UniProt P30988 25-474); assay: cell-based or functional assay
T2 sequence (looked up): T1 sequence (looked up) 1

[3] = biological target: T3, human amylin 3(a) receptor (human calcitonin receptor co-expressed with RAMP-3) (human, UniProt P30988 25-474; O60896 24-148, limits assumed); assay: SPA competition binding (Assay V): displacement of 125I-rat amylin from membranes of BHK cells with human calcitonin receptor + RAMP-3
T3 construct: whole, on cells; functional assay (Assay II a) used the whole cells; also called hAmylin-R; human amylin receptor
T3 sequence (looked up) 1: T1 sequence (looked up) 1
T3 sequence (looked up) 2: T1 sequence (looked up) 2
Method: The binding assay was performed using scintillation proximity assay (SPA) beads (RPNQ0001) from PerkinElmer and cell membranes from the Amylin 3(a)/CRE-luc cells (as described in Assay (II)) were used. Membranes were prepared in the following way; the cells were rinsed with PBS and incubated with Versene for approximately 5 min before harvesting. The cells were flushed with PBS and the cell-suspension was centrifuged for 5 min at 1000 rpm. Cells were homogenized (ultrathurrax) in a buffer containing 20 mM Na-HEPES and 10 mM EDTA (pH 7.4) and centrifuged at 20.000 rpm for 15 min. The resulting pellet was resuspended, homogenized and centrifuged (20.000 rpm, 15 min) in a buffer containing 20 mM Na-HEPES and 0.1 mM EDTA (pH 7.4, buffer 2). The resulting pellet was resuspended in buffer 2 and protein concentration was measured (BCA protein Assay, Pierce). The homogenate was kept cold during the whole procedure. The membranes were kept at −80° C. until use. The assay was performed in a 384 well Optiplate (PerkinElmer) in a total volume of 40 ul. Membranes were mixed with SPA beads. Final concentration of membranes 35 ng/μL final and SPA beads was 0.05 mg/well. Test-compounds were dissolved in DMSO and further diluted in assay buffer (50 mM Hepes, pH 7.4, 1 mM CaCl2, 5 mM MgCl₂, 0.1% OA and 0.02% Tween20). […] The final mixture was incubated with shaking at 400 rpm for 120 min at 25° C. prior to centrifugation (1500 rpm, 10 min). Samples were analyzed on TopCounter™ (Packard). The IC₅₀ was calculated using (one site binding competition analysis) GraphPad Prism5 as a measure of receptor affinity.

[4] = biological target: T4, human calcitonin receptor (human, UniProt P30988 25-474); assay: cell-based or functional assay; remark: listed apart in the source
T4 sequence (looked up): T1 sequence (looked up) 1

[5] = biological target: T3, human amylin 3(a) receptor (human …); assay: cell-based or functional assay; remark: listed apart in the source

Question: What does the source list for K([γGlu-C20 diacid])CNTATCATQRLADFLRHSSPNFGAIPSSTNVGPETY-NH2 (disulfide 2-7 (inferred))?
Answer: Ratio hCT/hAmylin funct. [1]: 3.9; hCTR funct. EC50 (pM) [2]: 1120 pM

Question: What does the source list for K([γGlu-γGlu-C20 diacid])CNTATCATQRLADFLRHSSPNFGAIPSSTNVGPRTY-NH2 (disulfide 2-7, also called compound 130)?
Answer: IC50 [3]: 0.453 nM; hCTR funct. EC50 (CRE luciferase reporter, BHK cells) [4]: 7.28 nM; Ratio hCT/hAmylin funct. (hCTR EC50 over hAmylin-R EC50) [5]: 44.9; hAmylin-R funct. EC50 (CRE luciferase reporter, BHK cells) [5]: 0.162 nM

B1: N^ε1-[(4S)-4-carboxy-4-(19-carboxynonadecanoylamino)butanoyl]-[Asp14,Arg17,Pro21,Pro27,Pro34,Arg35]-h-amylin (peptide)
peptide: K([γGlu-C20 diacid])CNTATCATQRLADFLRHSSPNFGAIPSSTNVGPRTY-NH2
modifications: disulfide 2-7; N-terminus assumed
SMILES: CC[C@H](C)[C@H](NC(=O)[C@H](C)NC(=O)CNC(=O)[C@H](Cc1ccccc1)NC(=O)[C@H](CC(N)=O)NC(=O)[C@@H]1CCCN1C(=O)[C@H](CO)NC(=O)[C@H](CO)NC(=O)[C@H](Cc1c[nH]cn1)NC(=O)[C@H](CCCNC(=N)N)NC(=O)[C@H](CC(C)C)NC(=O)[C@H](Cc1ccccc1)NC(=O)[C@H](CC(=O)O)NC(=O)[C@H](C)NC(=O)[C@H](CC(C)C)NC(=O)[C@H](CCCNC(=N)N)NC(=O)[C@H](CCC(N)=O)NC(=O)[C@@H](NC(=O)[C@H](C)NC(=O)[C@@H]1CSSC[C@H](NC(=O)[C@@H](N)CCCCNC(=O)CC[C@H](NC(=O)CCCCCCCCCCCCCCCCCCC(=O)O)C(=O)O)C(=O)N[C@@H](CC(N)=O)C(=O)N[C@@H]([C@@H](C)O)C(=O)N[C@@H](C)C(=O)N[C@@H]([C@@H](C)O)C(=O)N1)[C@@H](C)O)C(=O)N1CCC[C@H]1C(=O)N[C@@H](CO)C(=O)N[C@@H](CO)C(=O)N[C@H](C(=O)N[C@@H](CC(N)=O)C(=O)N[C@H](C(=O)NCC(=O)N1CCC[C@H]1C(=O)N[C@@H](CCCNC(=N)N)C(=O)N[C@H](C(=O)N[C@@H](Cc1ccc(O)cc1)C(N)=O)[C@@H](C)O)C(C)C)[C@@H](C)O
Question: What does the source list for B1?
Answer: IC50 [3]: 0.281 nM; hCTR funct. EC50 (CRE luciferase reporter, BHK cells) [4]: 3.64 nM; Ratio hCT/hAmylin funct. (hCTR EC50 over hAmylin-R EC50) [5]: 24.9; hAmylin-R funct. EC50 (CRE luciferase reporter, BHK cells) [5]: 0.146 nM

B2: N^ε1-[(4S)-4-carboxy-4-[[(4S)-4-carboxy-4-(19-carboxynonadecanoylamino)butanoyl]amino]butanoyl]-[D-Asp14,Arg17,Pro21,Pro27,Arg35]-h-amylin (peptide)
peptide: K([γGlu-γGlu-C20 diacid])CNTATCATQRLA[dD]FLRHSSPNFGAIPSSTNVGSRTY-NH2
modifications: disulfide 2-7; N-terminus assumed
SMILES: CC[C@H](C)[C@H](NC(=O)[C@H](C)NC(=O)CNC(=O)[C@H](Cc1ccccc1)NC(=O)[C@H](CC(N)=O)NC(=O)[C@@H]1CCCN1C(=O)[C@H](CO)NC(=O)[C@H](CO)NC(=O)[C@H](Cc1c[nH]cn1)NC(=O)[C@H](CCCNC(=N)N)NC(=O)[C@H](CC(C)C)NC(=O)[C@H](Cc1ccccc1)NC(=O)[C@@H](CC(=O)O)NC(=O)[C@H](C)NC(=O)[C@H](CC(C)C)NC(=O)[C@H](CCCNC(=N)N)NC(=O)[C@H](CCC(N)=O)NC(=O)[C@@H](NC(=O)[C@H](C)NC(=O)[C@@H]1CSSC[C@H](NC(=O)[C@@H](N)CCCCNC(=O)CC[C@H](NC(=O)CC[C@H](NC(=O)CCCCCCCCCCCCCCCCCCC(=O)O)C(=O)O)C(=O)O)C(=O)N[C@@H](CC(N)=O)C(=O)N[C@@H]([C@@H](C)O)C(=O)N[C@@H](C)C(=O)N[C@@H]([C@@H](C)O)C(=O)N1)[C@@H](C)O)C(=O)N1CCC[C@H]1C(=O)N[C@@H](CO)C(=O)N[C@@H](CO)C(=O)N[C@H](C(=O)N[C@@H](CC(N)=O)C(=O)N[C@H](C(=O)NCC(=O)N[C@@H](CO)C(=O)N[C@@H](CCCNC(=N)N)C(=O)N[C@H](C(=O)N[C@@H](Cc1ccc(O)cc1)C(N)=O)[C@@H](C)O)C(C)C)[C@@H](C)O
Question: B2 was tested. Which IC50 [3] did it give?
Answer: Its IC50 is 0.365 nM.

Question: What about the “hCTR funct. EC50 (CRE luciferase reporter, BHK cells)” value [4] of the same binder?
Answer: The value was 100 nM.

Question: What about the “hAmylin-R funct. EC50 (CRE luciferase reporter, BHK cells)” value [5] of the same binder?
Answer: Its value is 0.383 nM.
